± gives the uncertainty stated by the source.

The nature of this series: amyloid nucleation score (Sup35N fusion, yeast selection) (log enrichment); library NNK3; higher = more nucleation; inactive = no reads after selection. An outline of the steps: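 On medium lacking adenine and uracil, psi-negative yeast expressing peptides of 20 random codons fused to Sup35N were grown 7 days at 30°C after a 24-hour induction with 100 μM copper sulfate. Illumina sequencing of input and output plasmid inserts gave the reads, and sequences under 100 input reads were excluded. The nucleation score is the DiMSum log enrichment of output over input reads, centred on the mode score of non-aggregating sequences.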
Take VSFFDQTKASGYSLRLMLFM: the amyloid nucleation score entry was “inactive”.

On to VSGQVVFGLWGYLWLYEEVF, for which the amyloid nucleation score result was “inactive”.

In the case of VSGVECSCD, the amyloid nucleation score was found to be 0.762 ± 0.15.

As for VSIFCCQPSSVIAVDISDHS, the amyloid nucleation score is 2.93 ± 0.068.

In the case of VSIRAVRYKVLGLFWSSTHV, the amyloid nucleation score result is “inactive”.

VSLFYKCSYNGVYNNRVLAP: the amyloid nucleation score is 1.43 ± 0.09.

Take VSLMP: the amyloid nucleation score entry is “inactive”.

In turn, VSNMGSMIVVVSVRCYM had an amyloid nucleation score of 1.45 ± 0.094.

As for VSPVGSSRWWHDLHVSLETS, the amyloid nucleation score result was “inactive”.

Regarding VSRCRVHKFTGYC, the amyloid nucleation score was -0.441 ± 0.8.

With VSRKMRLVWTRLVER, the amyloid nucleation score entry is “inactive”.

As for VSRTSVSRRFYCIARMCSPV, the amyloid nucleation score entry is “inactive”.

For VSSMYVVIHGV, the amyloid nucleation score result was “inactive”.

For VSSSVVYTFVMSSLLGVDNE, the amyloid nucleation score entry was “inactive”.

As for VSTSVDYFYGGPWTLVFGCL, the amyloid nucleation score came out at 2.6 ± 0.072.

VSTYGWAVRWGVFWGSMTYT: the amyloid nucleation score result is “inactive”.

VSVLIHGKRSFGMWCSMHAY: the amyloid nucleation score result was “inactive”.

In the case of VSVLRWLKRLDLHCGGV, the amyloid nucleation score result was “inactive”.

Take VSVVNYKVVHSSAEKVFSFS: the amyloid nucleation score result was “inactive”.

With VSYISDQGC, the amyloid nucleation score entry is “inactive”.

As to VSYVCDPLRKIVGTLVRKQV, the amyloid nucleation score stood at 0.563 ± 0.33.

With VTAMSMNVAQCPAYPR, the amyloid nucleation score entry is “inactive”.

For VTCPNFQKIYRQGCYGGFDT, the amyloid nucleation score result is “inactive”.

Take VTCSYQMVLWAAFVVKCPAL: the amyloid nucleation score was 0.817 ± 0.21.

VTCVVVVGVHVRRHGFQEYV: the amyloid nucleation score result is “inactive”.

Regarding VTFTHKEHGRPNTRSFTKYL, the amyloid nucleation score result is “inactive”.

With VTGHLGKG, the amyloid nucleation score entry was “inactive”.

For VTIITMEIWL, the amyloid nucleation score was 1.64 ± 0.06.

On to VTLCVVEPDCWRIGG, for which the amyloid nucleation score entry was “inactive”.

VTLLPVSVCINAFNLILGPF showed an amyloid nucleation score of 3.08 ± 0.065.

As to VTPSTGRSIVVTPGTYIARV, the amyloid nucleation score entry was “inactive”.

VTRETADDATVSQFWLNPSE: the amyloid nucleation score result is “inactive”.

Turning to VTRMLFVHCGTSVNVNS, the amyloid nucleation score result was “inactive”.

For VTRSDGTTISYNISIKLGKG, the amyloid nucleation score came to 2.2 ± 0.071.

As to VTSAPNKCFNLFYVNWDHNN, the amyloid nucleation score amounted to 0.784 ± 0.17.

Take VTSIPIPR: the amyloid nucleation score result is “inactive”.

Take VTVCSFLLVSRNRNRLRRIY: the amyloid nucleation score result is “inactive”.

In turn, VTVSPWLFFVWNDGLCSARL registered an amyloid nucleation score of 1.05 ± 0.096.

VVAIWLLGAINMLITTIYSS: the amyloid nucleation score result is “inactive”.

For VVCLFRVRYRW, the amyloid nucleation score stood at 1.48 ± 0.12.

Consider VVCLGTFITGDFIVVYTHYG, for which the amyloid nucleation score amounted to 2.88 ± 0.054.

With VVDDIWRPIDL, the amyloid nucleation score entry was “inactive”.

As to VVFCEYSTCAVRSL, the amyloid nucleation score was -0.219 ± 0.89.

In the case of VVGFMYYARFLPSDFVSINA, the amyloid nucleation score entry is “inactive”.

VVGNSCVYPVGPRFAE: the amyloid nucleation score is -0.454 ± 0.9.

As to VVISYQTSMTNHGCLSFYQW, the amyloid nucleation score worked out at 2.13 ± 0.056.

Take VVMCGCSSSRMGLGPVYRTF: the amyloid nucleation score entry was “inactive”.

Regarding VVMTDHINIKGIVEPTVTTF, the amyloid nucleation score entry is “inactive”.

Regarding VVQSYFIRREEFLLSCVQAG, the amyloid nucleation score entry is “inactive”.

Turning to VVRIGSRACGLRRKVCGGFG, the amyloid nucleation score result is “inactive”.

With VVSDTKYVVVEWYTCGQSSD, the amyloid nucleation score result is “inactive”.

As to VVSLESSAVVNGWLWVLAGA, the amyloid nucleation score entry is “inactive”.

On to VVTEVSSLSSTGGSFVWLCR, for which the amyloid nucleation score result is “inactive”.

As for VWFLLSILPHLTKSVSWGNT, the amyloid nucleation score entry is “inactive”.

VWHMGWKLPDS: the amyloid nucleation score is -0.39 ± 0.56.

Turning to VWPFPRFRILVKYSFFLGIW, the amyloid nucleation score is -0.232 ± 0.48.

As for VWPQNLNPICKSNLTRCVGC, the amyloid nucleation score result was “inactive”.

As for VWSHSI, the amyloid nucleation score entry is “inactive”.

For the substance VWSQIERLKHHPEFHMWC, the amyloid nucleation score result was “inactive”.

Substance VWTRTWLLMTCHCNRFKDCS showed an amyloid nucleation score of 1.67 ± 0.12.

Turning to VWVKSGKWYRQLIRKYVGSS, the amyloid nucleation score result was “inactive”.

Turning to VWWSYLQKSKILI, the amyloid nucleation score is 0.624 ± 0.2.

Turning to VWYAYRLYQTWKITNVLIPW, the amyloid nucleation score result was “inactive”.

For VYCHC, the amyloid nucleation score result is “inactive”.

As to VYDMDNVRYNHRGNTERFSG, the amyloid nucleation score was 0.109 ± 0.28.

For the substance VYIRQLRMPAFCLTSGRALD, the amyloid nucleation score result was “inactive”.

Consider VYIRTGN, for which the amyloid nucleation score result was “inactive”.

For the substance VYKDHAIVLCWVVK, the amyloid nucleation score is -0.437 ± 0.56.

VYKWECKDRKYGWRYCAETW: the amyloid nucleation score entry was “inactive”.

Turning to VYLHIVHCMGYVNDQGRNRS, the amyloid nucleation score entry was “inactive”.

On to VYMYVALPRSEDHNVF, for which the amyloid nucleation score result was “inactive”.

As to VYNALNNSAVLQL, the amyloid nucleation score entry is “inactive”.

On to VYNTGFLGPVSFSAGKFLML, for which the amyloid nucleation score amounted to 0.943 ± 0.13.

For VYVGVLVFITWYLSSLYNWA, the amyloid nucleation score result was “inactive”.

In the case of VYVVRANRFMRSPQLRVLFS, the amyloid nucleation score result is “inactive”.

With VYYACGMDVKNFWELRLWGD, the amyloid nucleation score was found to be 1.99 ± 0.063.

Consider WAEREDAAVSLGLWYGDTCF, for which the amyloid nucleation score result is “inactive”.

WAFGYFGCYFQFLVLQDSVG displayed an amyloid nucleation score of 1.87 ± 0.1.

Turning to WAVIFT, the amyloid nucleation score entry is “inactive”.

In the case of WCGRETSRQWA, the amyloid nucleation score turned out to be 0.033 ± 0.39.

For the substance WCQFSDLSVAFK, the amyloid nucleation score entry was “inactive”.

As for WCVASILRQFPLCYFITQNP, the amyloid nucleation score entry was “inactive”.

In turn, WCVMPFNSCTTLMYKFSEN returned an amyloid nucleation score of 1.66 ± 0.071.

Regarding WDMENFLD, the amyloid nucleation score result is “inactive”.

In the case of WDTILDLGGNDVEGSFPVTE, the amyloid nucleation score entry is “inactive”.

Consider WDVTNLAGFLNDPVSLKLS, for which the amyloid nucleation score result was “inactive”.

For the substance WDVYLPLVMSLK, the amyloid nucleation score was determined as 1.29 ± 0.12.

Consider WEFSVMSRCRKGHYTALFVV, for which the amyloid nucleation score entry is “inactive”.

On to WESLIGLWASAGMIWVHWGS, for which the amyloid nucleation score result was “inactive”.

Turning to WEYNASLLVLTHLGWAFHLC, the amyloid nucleation score entry is “inactive”.

WFCNYRIMYKVSSIAPMLNP: the amyloid nucleation score result was “inactive”.

In turn, WFNQHTECHGRSVHLAAHNV showed an amyloid nucleation score of -0.14 ± 1.

Turning to WFNTTNSGVEP, the amyloid nucleation score result is “inactive”.

Regarding WFSNWYYVARDDYLISGREE, the amyloid nucleation score entry is “inactive”.

As for WFWLRRSFGFYHVKSSNSFT, the amyloid nucleation score result was “inactive”.

WFYYVM: the amyloid nucleation score result is “inactive”.

With WGKTRFWRVSSWLLNDVWRV, the amyloid nucleation score result was “inactive”.

On to WGLGETCLKLSWPCRN, for which the amyloid nucleation score result was “inactive”.

Substance WGLLRYYE registered an amyloid nucleation score of 0.091 ± 0.28.

With WGLLV, the amyloid nucleation score entry was “inactive”.

For WGTVMTLSCVALEVYFSLRV, the amyloid nucleation score entry was “inactive”.

WGWRA returned an amyloid nucleation score of -0.215 ± 0.57.

For the substance WHGYYMFLW, the amyloid nucleation score entry is “inactive”.

For WHTDWRW, the amyloid nucleation score result was “inactive”.

Turning to WHWRGTICVLCAGYRWIAHS, the amyloid nucleation score entry was “inactive”.

Substance WIFCLVAIFRTEVDMTNYFT came in with an amyloid nucleation score of 0.355 ± 0.69.

Regarding WIGDIIILWMRHSDLCILNC, the amyloid nucleation score result was “inactive”.

Consider WIYRLWQGDIVPRVMTAHTA, for which the amyloid nucleation score is -0.735 ± 1.8.

Regarding WKFSISWVYTKME, the amyloid nucleation score is -0.423 ± 0.75.

Turning to WKGPNRQSMLHGLPLYIYQI, the amyloid nucleation score is -0.305 ± 0.66.

For the substance WKNLSYRGFHYWTALWHMVR, the amyloid nucleation score is -0.12 ± 1.

The substance WKRNKRGKV displayed an amyloid nucleation score of 1.4 ± 0.11.

On to WKTTMALRSVLPGGYLHFCV, for which the amyloid nucleation score result was “inactive”.

As for WKVMLRLALRMQCTHLAVCW, the amyloid nucleation score entry is “inactive”.

As for WLCLEYMVDEADNFSDGAWM, the amyloid nucleation score result is “inactive”.

Take WLELVSCS: the amyloid nucleation score result is “inactive”.

Turning to WLKNF, the amyloid nucleation score result is “inactive”.

Take WLLKIMQYLDLAGNG: the amyloid nucleation score result was “inactive”.

With WLLTNNLDCQCCMCLDWMWC, the amyloid nucleation score amounted to 2.81 ± 0.057.

With WLRSVLLRVTLLNSWHSWVS, the amyloid nucleation score entry was “inactive”.

Turning to WLVFKSVFVDRM, the amyloid nucleation score result was “inactive”.

Take WLWTLYDG: the amyloid nucleation score entry was “inactive”.

For the substance WLYRNA, the amyloid nucleation score result was “inactive”.

For WMCIEGIANLESAFNRRFST, the amyloid nucleation score result was “inactive”.

WMELTVIQCWMAA: the amyloid nucleation score entry was “inactive”.

Turning to WMLLLTV, the amyloid nucleation score result was “inactive”.

As to WMVGVKRSW, the amyloid nucleation score entry was “inactive”.

As to WNAYVHTNNV, the amyloid nucleation score entry is “inactive”.

In turn, WNIFSYNNSLVWNPEGNESG showed an amyloid nucleation score of 0.836 ± 0.27.

In turn, WNYRFYPVKRNGSFLSRIVR gave an amyloid nucleation score of -0.47 ± 0.8.

As for WPESIFKLRYRSGCCTEVND, the amyloid nucleation score entry was “inactive”.

In the case of WQLAGYWLEWSIRPEGALDD, the amyloid nucleation score result was “inactive”.

As for WQRWMA, the amyloid nucleation score entry was “inactive”.

The record behind these values is the supplement of paper PMC12042874.
